Results published in PMC9596850, “Tonsillar Microbiome‐Derived Lantibiotics Induce Structural Changes of IL‐6 and IL‐21 Receptors and Modulate Host Immunity” (Advanced Science, 2022).
Read-outs that look alike come from different tables or passages of the source.

Experiments:
[1] = biological target: mouse IL-21 receptor protein with the Fc region of human IgG1 (mouse) (UniProt Q9JHX3); assay: SPR; Biacore 8K; receptor immobilised on CM5 chip by amine coupling, 25 °C, PBS-P running buffer; analytes with 5% DMSO injected serially; steady-state affinity model
[2] = biological target: mouse IL-21 receptor protein with the Fc region of human IgG1 (mouse) (UniProt Q9JHX3); assay: as above; remark: listed apart in the source

Substance: salivaricin A2 (peptide)
- Kd [1]: 12.6 µM
- Kd [2]: 29.4 µM
